In IntAct's records for PubMed 19478074:

B1: Transforming growth factor-beta-induced protein ig-h3 (Homo sapiens), Q15582 (parent)
chain: MALFVRLLALALALALGPAATLAGPAKSPYQLVLQHSRLRGRQHGPNVCAVQKVIGTNRKYFTNCKQWYQRKICGKSTVISYECCPGYEKVPGEKGCPAALPLSNLYETLGVVGSTTTQLYTDRTEKLRPEMEGPGSFTIFAPSNEAWASLPAEVLDSLVSNVNIELLNALRYHMVGRRVLTDELKHGMTLTSMYQNSNIQIHHYPNGIVTVNCARLLKADHHATNGVVHLIDKVISTITNNIQQIIEIEDTFETLRAAVAASGLNTMLEGNGQYTLLAPTNEAFEKIPSETLNRILGDPEALRDLLNNHILKSAMCAEAIVAGLSVETLEGTTLEVGCSGDMLTINGKAIISNKDILATNGVIHYIDELLIPDSAKTLFELAAESDVSTAIDLFRQAGLGNHLSGSERLTLLAPLNSVFKDGTPPIDAHTRNLLRNHIIKDQLASKYLYHGQTLETLGGKKLRVFVYRNSLCIENSCIAAHDKRGRYGTLFTMDRVLTPPMGTVMDVLKGDNRFSMLVAAIQSAGLTETLNREGVYTVFAPTNEAFRALPPRERSRLLGDAKELANILKYHIGDEILVSGGIGALVRLKSLQGDKLEVSLKNNVVSVNKEPVAEPDIMATNGVVHVITNVLQPPANRPQERGDELADSALEIFKQASAFSRASQRSVRLAPVYQKLLERMKH
partner: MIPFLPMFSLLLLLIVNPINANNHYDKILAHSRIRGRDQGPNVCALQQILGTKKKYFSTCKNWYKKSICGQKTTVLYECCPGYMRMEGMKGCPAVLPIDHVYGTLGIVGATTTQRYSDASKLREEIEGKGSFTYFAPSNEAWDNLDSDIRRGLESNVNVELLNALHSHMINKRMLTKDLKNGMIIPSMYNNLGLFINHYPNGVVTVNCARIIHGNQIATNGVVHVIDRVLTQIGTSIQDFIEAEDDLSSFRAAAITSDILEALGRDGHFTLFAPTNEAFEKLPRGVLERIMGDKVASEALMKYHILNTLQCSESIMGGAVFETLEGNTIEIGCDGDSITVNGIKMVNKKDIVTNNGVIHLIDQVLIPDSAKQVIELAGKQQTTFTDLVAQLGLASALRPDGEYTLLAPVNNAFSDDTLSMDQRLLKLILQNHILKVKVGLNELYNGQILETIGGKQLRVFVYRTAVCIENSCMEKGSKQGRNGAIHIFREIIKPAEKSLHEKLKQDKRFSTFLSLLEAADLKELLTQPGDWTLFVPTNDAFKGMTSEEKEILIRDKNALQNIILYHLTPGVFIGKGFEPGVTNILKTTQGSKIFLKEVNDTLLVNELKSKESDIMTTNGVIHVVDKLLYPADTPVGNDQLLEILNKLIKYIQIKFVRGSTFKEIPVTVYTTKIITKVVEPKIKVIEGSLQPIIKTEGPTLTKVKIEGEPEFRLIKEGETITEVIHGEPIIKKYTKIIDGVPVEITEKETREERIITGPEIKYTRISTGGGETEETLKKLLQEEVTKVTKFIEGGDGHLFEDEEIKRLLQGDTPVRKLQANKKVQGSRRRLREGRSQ

Variants of: B1
Settings: with postn_human POSTN

Variant	effect of a mutation on the interaction
R124H	disrupting interaction strength
